Experimental data from publication PMC11570840.

Tests used:
[1] = target: β2-adrenergic receptor C terminally fused with RlucII (β2AR-RlucII) (UniProt P07550); experiment: FRET or BRET; live HEK293 cells co-transfected with donor β2AR-RlucII and acceptor NES-Venus-mGs, -mGsi or -mGsq; 48 h after transfection stimulated 20 min with increasing concentrations of ISO; 5 μM coelenterazine H in PBS; data as % of maximal ISO-induced mGs recruitment
[2] = target: β2-adrenergic receptor C terminally fused with RlucII (β2AR-RlucII) (UniProt P07550); experiment: FRET or BRET; live HEK293 cells co-transfected with donor β2AR-RlucII and acceptor NES-Venus-mGsq; stimulated 20 min with increasing concentrations of ISO, epinephrine, norepinephrine or formoterol; data as % of maximal ISO-induced mGsq recruitment

efficacy of ISO-induced recruitment, % of mGs [1] | efficacy of recruitment with epinephrine, % of ISO [2] | efficacy of recruitment with formoterol, % of ISO [2] | efficacy of recruitment with norepinephrine, % of ISO [2] | Substance
60% |  |  |  | NES-Venus-mGsi (mini G protein mGsi)
20% | 60% | 80% | 40% | NES-Venus-mGsq (mini G protein mGsq)
